Reference: IntAct's records for PubMed 19805355

B1: ATP-sensitive inward rectifier potassium channel 11 (Homo sapiens), Q14654 (parent)
chain: MLSRKGIIPEEYVLTRLAEDPAKPRYRARQRRARFVSKKGNCNVAHKNIREQGRFLQDVFTTLVDLKWPHTLLIFTMSFLCSWLLFAMAWWLIAFAHGDLAPSEGTAEPCVTSIHSFSSAFLFSIEVQVTIGFGGRMVTEECPLAILILIVQNIVGLMINAIMLGCIFMKTAQAHRRAETLIFSKHAVIALRHGRLCFMLRVGDLRKSMIISATIHMQVVRKTTSPEGEVVPLHQVDIPMENGVGGNSIFLVAPLIIYHVIDANSPLYDLAPSDLHHHQDLEIIVILEGVVETTGITTQARTSYLADEILWGQRFVPIVAEEDGRYSVDYSKFGNTVKVPTPLCTARQLDEDHSLLEALTLASARGPLRKRSVPMAKAKPKFSISPDSLS

Variants of: B1
Settings: with ank2_human ANK2, Q01484
ank2_human ANK2, Q01484, sequence (Q01484 whole entry): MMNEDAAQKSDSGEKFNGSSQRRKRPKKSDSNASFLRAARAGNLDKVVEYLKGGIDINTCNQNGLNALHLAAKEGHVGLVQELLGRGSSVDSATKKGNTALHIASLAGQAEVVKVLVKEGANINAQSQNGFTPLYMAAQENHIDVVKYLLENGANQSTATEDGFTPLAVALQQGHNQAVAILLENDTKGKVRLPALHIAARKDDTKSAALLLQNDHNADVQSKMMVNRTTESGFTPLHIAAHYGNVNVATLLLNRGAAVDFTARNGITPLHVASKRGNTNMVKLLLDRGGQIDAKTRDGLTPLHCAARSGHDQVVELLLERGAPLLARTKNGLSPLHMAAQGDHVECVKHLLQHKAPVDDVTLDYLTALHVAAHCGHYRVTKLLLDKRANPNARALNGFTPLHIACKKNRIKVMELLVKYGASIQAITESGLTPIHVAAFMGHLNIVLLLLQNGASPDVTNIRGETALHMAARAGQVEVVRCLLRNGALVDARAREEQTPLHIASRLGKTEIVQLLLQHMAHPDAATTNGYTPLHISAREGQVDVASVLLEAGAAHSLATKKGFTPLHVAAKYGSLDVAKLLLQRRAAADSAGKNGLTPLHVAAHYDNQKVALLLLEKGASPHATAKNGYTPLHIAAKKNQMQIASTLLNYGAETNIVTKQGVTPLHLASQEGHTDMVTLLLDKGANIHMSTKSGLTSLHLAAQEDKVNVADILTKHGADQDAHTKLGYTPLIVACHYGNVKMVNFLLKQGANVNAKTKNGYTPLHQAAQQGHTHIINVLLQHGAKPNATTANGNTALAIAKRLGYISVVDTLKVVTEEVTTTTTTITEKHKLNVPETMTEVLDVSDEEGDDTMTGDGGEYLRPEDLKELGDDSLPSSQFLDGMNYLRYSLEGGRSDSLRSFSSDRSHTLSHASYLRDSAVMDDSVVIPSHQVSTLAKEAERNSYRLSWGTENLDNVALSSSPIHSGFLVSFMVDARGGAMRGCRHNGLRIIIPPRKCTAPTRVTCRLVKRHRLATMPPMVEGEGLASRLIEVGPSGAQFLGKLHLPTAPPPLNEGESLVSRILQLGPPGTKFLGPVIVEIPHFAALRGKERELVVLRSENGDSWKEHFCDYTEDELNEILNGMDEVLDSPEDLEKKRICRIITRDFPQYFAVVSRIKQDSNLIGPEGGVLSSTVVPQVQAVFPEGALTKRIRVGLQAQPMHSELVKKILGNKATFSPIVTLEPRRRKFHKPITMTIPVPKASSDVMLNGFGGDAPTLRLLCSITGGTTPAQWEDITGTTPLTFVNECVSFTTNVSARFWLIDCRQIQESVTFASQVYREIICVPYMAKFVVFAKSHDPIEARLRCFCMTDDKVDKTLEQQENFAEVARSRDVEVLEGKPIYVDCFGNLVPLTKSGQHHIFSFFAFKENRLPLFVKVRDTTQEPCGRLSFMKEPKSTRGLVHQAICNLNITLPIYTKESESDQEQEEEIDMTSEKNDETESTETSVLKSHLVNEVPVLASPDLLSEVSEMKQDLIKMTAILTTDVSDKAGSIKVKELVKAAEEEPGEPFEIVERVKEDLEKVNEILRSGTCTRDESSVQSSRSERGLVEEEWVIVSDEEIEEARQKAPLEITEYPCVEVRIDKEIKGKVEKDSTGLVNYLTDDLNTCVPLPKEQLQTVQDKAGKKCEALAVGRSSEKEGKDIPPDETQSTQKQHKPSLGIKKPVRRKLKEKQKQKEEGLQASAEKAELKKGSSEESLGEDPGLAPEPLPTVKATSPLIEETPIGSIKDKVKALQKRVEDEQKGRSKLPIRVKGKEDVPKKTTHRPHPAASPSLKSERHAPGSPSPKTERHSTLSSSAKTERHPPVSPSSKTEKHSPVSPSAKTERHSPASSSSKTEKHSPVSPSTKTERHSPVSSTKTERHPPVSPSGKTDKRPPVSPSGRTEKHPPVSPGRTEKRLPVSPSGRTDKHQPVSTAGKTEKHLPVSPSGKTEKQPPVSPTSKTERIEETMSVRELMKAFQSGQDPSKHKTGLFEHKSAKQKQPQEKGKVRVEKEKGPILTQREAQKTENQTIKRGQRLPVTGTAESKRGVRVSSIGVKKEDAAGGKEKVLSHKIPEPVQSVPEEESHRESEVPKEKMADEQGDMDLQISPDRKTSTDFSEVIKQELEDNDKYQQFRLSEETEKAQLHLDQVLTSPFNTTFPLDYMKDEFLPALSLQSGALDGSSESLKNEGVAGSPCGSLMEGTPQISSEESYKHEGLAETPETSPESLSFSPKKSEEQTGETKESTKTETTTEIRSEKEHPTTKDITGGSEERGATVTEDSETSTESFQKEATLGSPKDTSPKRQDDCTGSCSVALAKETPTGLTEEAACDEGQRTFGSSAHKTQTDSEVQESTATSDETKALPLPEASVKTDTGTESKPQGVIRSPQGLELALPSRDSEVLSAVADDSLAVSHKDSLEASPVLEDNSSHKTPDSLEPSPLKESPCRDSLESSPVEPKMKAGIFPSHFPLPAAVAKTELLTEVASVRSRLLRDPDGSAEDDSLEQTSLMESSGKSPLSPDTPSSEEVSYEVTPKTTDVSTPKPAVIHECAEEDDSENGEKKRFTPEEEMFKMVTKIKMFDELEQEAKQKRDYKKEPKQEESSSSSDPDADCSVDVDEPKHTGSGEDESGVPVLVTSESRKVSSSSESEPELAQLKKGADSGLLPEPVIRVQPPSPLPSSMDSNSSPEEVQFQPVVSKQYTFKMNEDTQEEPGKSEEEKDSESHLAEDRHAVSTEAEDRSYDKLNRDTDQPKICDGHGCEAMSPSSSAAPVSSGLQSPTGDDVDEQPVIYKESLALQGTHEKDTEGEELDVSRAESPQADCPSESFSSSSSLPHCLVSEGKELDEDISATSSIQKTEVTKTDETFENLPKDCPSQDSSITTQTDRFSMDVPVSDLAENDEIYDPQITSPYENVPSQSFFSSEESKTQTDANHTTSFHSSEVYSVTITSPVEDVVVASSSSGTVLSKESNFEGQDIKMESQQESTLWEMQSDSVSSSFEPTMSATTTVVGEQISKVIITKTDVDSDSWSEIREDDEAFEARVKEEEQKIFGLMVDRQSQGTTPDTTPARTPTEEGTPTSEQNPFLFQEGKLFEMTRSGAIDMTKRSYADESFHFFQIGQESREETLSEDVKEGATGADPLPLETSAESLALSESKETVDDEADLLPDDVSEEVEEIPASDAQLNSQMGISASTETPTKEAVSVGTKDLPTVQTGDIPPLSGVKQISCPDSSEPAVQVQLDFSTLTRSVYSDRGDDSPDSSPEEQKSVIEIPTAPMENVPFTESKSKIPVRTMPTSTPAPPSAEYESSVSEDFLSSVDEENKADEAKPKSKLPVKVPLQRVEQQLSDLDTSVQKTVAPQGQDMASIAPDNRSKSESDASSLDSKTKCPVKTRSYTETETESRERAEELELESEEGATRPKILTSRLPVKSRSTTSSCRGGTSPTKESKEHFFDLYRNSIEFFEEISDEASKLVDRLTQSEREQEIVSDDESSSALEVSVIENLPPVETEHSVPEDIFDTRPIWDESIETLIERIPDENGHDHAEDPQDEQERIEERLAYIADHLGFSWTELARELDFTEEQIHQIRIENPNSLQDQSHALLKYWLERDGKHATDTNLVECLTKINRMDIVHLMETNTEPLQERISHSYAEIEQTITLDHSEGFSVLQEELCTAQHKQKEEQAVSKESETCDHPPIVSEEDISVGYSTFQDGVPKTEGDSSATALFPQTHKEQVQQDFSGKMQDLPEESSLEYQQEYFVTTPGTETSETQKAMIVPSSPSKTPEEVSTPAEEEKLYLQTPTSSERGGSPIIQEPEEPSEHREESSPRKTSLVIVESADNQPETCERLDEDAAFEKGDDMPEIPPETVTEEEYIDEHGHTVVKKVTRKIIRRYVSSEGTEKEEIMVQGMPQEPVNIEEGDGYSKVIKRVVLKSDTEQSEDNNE

| Variant | effect of a mutation on the interaction |
| --- | --- |
| E321K | disrupting interaction |
| D323K | disrupting interaction |
| E322K | disrupting interaction |

Variants of: B1
Settings: with ank2_human ANK2, Q01484
Remark: another data set of the same source

| Variant | effect of a mutation on the interaction |
| --- | --- |
| E322K | decreasing interaction |
